# Key:
# nsp12 (RdRp);nsp7;nsp8 [1] = molecular target: T1, nsp12 (RdRp);nsp7;nsp8 (SARS-CoV-2;SARS-CoV-2;SARS-CoV-2, UniProt P0DTD1;P0DTD1;P0DTD1 4393-5324;3860-3942;3943-4140, ||); assay: EMSA; 10 mM MgCl2; broadened shifted bands; conditions: protein: recombinant;recombinant;recombinant; tags: ;N-terminal His6 removed by TEV;; copies: 1;1;2
# nsp12 (RdRp);nsp7;nsp8 [2] = molecular target: T1, nsp12 (RdRp);nsp7;nsp8; assay: EMSA; 10 mM MgCl2; conditions: protein: recombinant;recombinant;recombinant; tags: ;N-terminal His6 removed by TEV;; copies: 1;1;2; hairpin, blunt, no 5' overhang
# nsp12 (RdRp);nsp7;nsp8 [3] = molecular target: T1, nsp12 (RdRp);nsp7;nsp8; assay: EMSA; 2.4 uM protein; conditions: protein: recombinant;recombinant;recombinant; tags: ;N-terminal His6 removed by TEV;; copies: 1;1;2
binder,measurement,setting,value
UUUUCAUGCUACGCGUAGUUUUCUACGCG (structured_RNA) [CoV-RNA1],binding result,nsp12 (RdRp);nsp7;nsp8 [1],binds
CGCGUAGUUUUCUACGCG (structured_RNA) [CoV-RNA1 truncated],binding result,nsp12 (RdRp);nsp7;nsp8 [2],no binding
TTTTCATGCTACGCGTAGTTTTCTACGCG (structured_DNA) [CoV-DNA1],binding result,nsp12 (RdRp);nsp7;nsp8 [3],no binding

# Reference: paper PMC9185715
